Test results reported in patent US12104181B2, “Compositions and methods for treating viral infections targeting TRIM7” (THE BOARD OF REGENTS OF THE UNIVERSITY OF TEXAS SYSTEM, priority 2021, dated 2024).

B1: RNFT2: human RING type E3 ligase expressed from lentiviral vector (protein, UniProt Q96EX2 1-444, looked up)
E3 ubiquitin-protein ligase …: MWLFTVNQVLRKMQRRHSSNTDNIPPERNRSQALSSEASVDEGGVFESLKAEAASPPALFSGLSGSLPTSSFPSSLVLGSSAGGGDVFIQMPASREEGGGRGEGGAYHHRQPHHHFHHGGHRGGSLLQHVGGDHRGHSEEGGDEQPGTPAPALSELKAVICWLQKGLPFILILLAKLCFQHKLGIAVCIGMASTFAYANSTLREQVSLKEKRSVLVILWILAFLAGNTLYVLYTFSSQQLYNSLIFLKPNLEMLDFFDLLWIVGIADFVLKYITIALKCLIVALPKIILAVKSKGKFYLVIEELSQLFRSLVPIQLWYKYIMGDDSSNSYFLGGVLIVLYSLCKSFDICGRVGGVRKALKLLCTSQNYGVRATGQQCTEAGDICAICQAEFREPLILLCQHVFCEECLCLWLDRERTCPLCRSVAVDTLRCWKDGATSAHFQVY
B2: RNF2: human RING type E3 ligase expressed from lentiviral vector (protein, UniProt Q99496 2-336, looked up)
E3 ubiquitin-protein ligase …: SQAVQTNGTQPLSKTWELSLYELQRTPQEAITDGLEIVVSPRSLHSELMCPICLDMLKNTMTTKECLHRFCADCIITALRSGNKECPTCRKKLVSKRSLRPDPNFDALISKIYPSRDEYEAHQERVLARINKHNNQQALSHSIEEGLKIQAMNRLQRGKKQQIENGSGAEDNGDSSHCSNASTHSNQEAGPSNKRTKTSDDSGLELDNNNAAMAIDPVMDGASEIELVFRPHPTLMEKDDSAQTRYIKTSGNATVDHLSKYLAVRLALEELRSKGESNQMNLDTASEKQYTIYIATASGQFTVLNGSFSLELVSEKYWKVNKPMELYYAPTKEHK
B3: RNF11: human RING type E3 ligase expressed from lentiviral vector (protein, UniProt Q9Y3C5 2-154, looked up)
RING finger protein 11: GNCLKSPTSDDISLLHESQSDRASFGEGTEPDQEPPPPYQEQVPVPVYHPTPSQTRLATQLTEEEQIRIAQRIGLIQHLPKGVYDPGRDGSEKKIRECVICMMDFVYGDPIRFLPCMHIYHLDCIDDWLMRSFTCPSCMEPVDAALLSSYETN
B4: RNF113B: human RING type E3 ligase expressed from lentiviral vector (protein, UniProt Q8IZP6 1-322, looked up)
RING finger protein 113B: MAAPPSPGRTADQADQVCTFLFKKPGRKGAAGLRKRPACDPEHGESSSSGDEGDTVAQPPRVAPRPRGLHSWQKAAHGDRRGEEAAPESLDVVYRSTRSAKPVGPEDMGATADFEQDTEKEHHTPTILKCSQRVQEALRGREHDHIYRGIHSYLRYLKPKDTSMGNSSSGMARKGPIRAPGHLRATVRWDYQPDICKDYKETGFCGFGDSCKFLHDRSDYKLGWEIERELEEGRYCICEDENHEVGSEEEEIPFRCFICRQAFQNPVVTKCRHYFCESCALEHFRATPRCYICDQPTGGIFNPAKELMAKLQKLQAAEGKKR
modifications: lentiviral expression
notes: human RING type E3 ligase expressed from lentiviral vector
B5: RNF148: human RING type E3 ligase expressed from lentiviral vector (protein, UniProt Q8N7C7 35-305, looked up)
RING finger protein 148: KAIWTAHLNITFQVGNEITSELGESGVFGNHSPLERVSGVVALPEGWNQNACHPLTNFSRPKQADSWLALIERGGCTFTHKINVAAEKGANGVIIYNYQGTGSKVFPMSHQGTENIVAVMISNLKGMEILHSIQKGVYVTVIIEVGRMHMQWVSHYIMYLFTFLAATIAYFYLDCVWRLTPRVPNSFTRRRSQIKTDVKKAIDQLQLRVLKEGDEELDLNEDNCVVCFDTYKPQDVVRILTCKHFFHKACIDPWLLAHRTCPMCKCDILKT
B6: RNF133: human RING type E3 ligase expressed from lentiviral vector (protein, UniProt Q8WVZ7 1-376, looked up)
E3 ubiquitin-protein ligase …: MHLLKVGTWRNNTASSWLMKFSVLWLVSQNCCRASVVWMAYMNISFHVGNHVLSELGETGVFGRSSTLKRVAGVIVPPEGKIQNACNPNTIFSRSKYSETWLALIERGGCTFTQKIKVATEKGASGVIIYNVPGTGNQVFPMFHQAFEDVVVVMIGNLKGTEIFHLIKKGVLITAVVEVGRKHIIWMNHYLVSFVIVTTATLAYFIFYHIHRLCLARIQNRRWQRLTTDLQNTFGQLQLRVVKEGDEEINPNGDSCVICFERYKPNDIVRILTCKHFFHKNCIDPWILPHGTCPICKCDILKVLGIQVVVENGTEPLQVLMSNELPETLSPSEEETNNEVSPAGTSDKVIHVEENPTSQNNDIQPHSVVEDVHPSP
modifications: lentiviral expression
notes: as for B4
B7: RNF10: human RING type E3 ligase expressed from lentiviral vector (protein, UniProt Q8N5U6 1-811, looked up)
E3 ubiquitin-protein ligase …: MPLSSPNAAATASDMDKNSGSNSSSASSGSSKGQQPPRSASAGPAGESKPKSDGKNSSGSKRYNRKRELSYPKNESFNNQSRRSSSQKSKTFNKMPPQRGGGSSKLFSSSFNGGRRDEVAEAQRAEFSPAQFSGPKKINLNHLLNFTFEPRGQTGHFEGSGHGSWGKRNKWGHKPFNKELFLQANCQFVVSEDQDYTAHFADPDTLVNWDFVEQVRICSHEVPSCPICLYPPTAAKITRCGHIFCWACILHYLSLSEKTWSKCPICYSSVHKKDLKSVVATESHQYVVGDTITMQLMKREKGVLVALPKSKWMNVDHPIHLGDEQHSQYSKLLLASKEQVLHRVVLEEKVALEQQLAEEKHTPESCFIEAAIQELKTREEALSGLAGSRREVTGVVAALEQLVLMAPLAKESVFQPRKGVLEYLSAFDEETTEVCSLDTPSRPLALPLVEEEEAVSEPEPEGLPEACDDLELADDNLKEGTICTESSQQEPITKSGFTRLSSSPCYYFYQAEDGQHMFLHPVNVRCLVREYGSLERSPEKISATVVEIAGYSMSEDVRQRHRYLSHLPLTCEFSICELALQPPVVSKETLEMFSDDIEKRKRQRQKKAREERRRERRIEIEENKKQGKYPEVHIPLENLQQFPAFNSYTCSSDSALGPTSTEGHGALSISPLSRSPGSHADFLLTPLSPTASQGSPSFCVGSLEEDSPFPSFAQMLRVGKAKADVWPKTAPKKDENSLVPPAPVDSDGESDNSDRVPVPSFQNSFSQAIEAAFMKLDTPATSDPLSEEKGGKKRKKQKQKLLFSTSVVHTK
modifications: lentiviral expression
notes: as for B4
B8: RFFL: human RING type E3 ligase expressed from lentiviral vector (protein, UniProt Q8WZ73 1-363, looked up)
E3 ubiquitin-protein ligase …: MWATCCNWFCLDGQPEEVPPPQGARMQAYSNPGYSSFPSPTGLEPSCKSCGAHFANTARKQTCLDCKKNFCMTCSSQVGNGPRLCLLCQRFRATAFQREELMKMKVKDLRDYLSLHDISTEMCREKEELVLLVLGQQPVISQEDRTRASTLSPDFPEQQAFLTQPHSSMVPPTSPNLPSSSAQATSVPPAQVQENQQANGHVSQDQEEPVYLESVARVPAEDETQSIDSEDSFVPGRRASLSDLTDLEDIEGLTVRQLKEILARNFVNYKGCCEKWELMERVTRLYKDQKGLQHLVSGAEDQNGGAVPSGLEENLCKICMDSPIDCVLLECGHMVTCTKCGKRMNECPICRQYVIRAVHVFRS
B9: RNF13: human RING type E3 ligase expressed from lentiviral vector (protein, UniProt O43567 35-381, looked up)
E3 ubiquitin-protein ligase …: DILAYNFENASQTFDDLPARFGYRLPAEGLKGFLINSKPENACEPIVPPPVKDNSSGTFIVLIRRLDCNFDIKVLNAQRAGYKAAIVHNVDSDDLISMGSNDIEVLKKIDIPSVFIGESSANSLKDEFTYEKGGHLILVPEFSLPLEYYLIPFLIIVGICLILIVIFMITKFVQDRHRARRNRLRKDQLKKLPVHKFKKGDEYDVCAICLDEYEDGDKLRILPCSHAYHCKCVDPWLTKTKKTCPVCKQKVVPSQGDSDSDTDSSQEENEVTEHTPLLRPLASVSAQSFGALSESRSHQNMTESSDYEEDDNEDTDSSDAENEINEHDVVVQLQPNGERDYNIANTV
B10: RSPRY1: human RING type E3 ligase expressed from lentiviral vector (protein, UniProt Q96DX4 17-576, looked up)
RING finger and SPRY …: QGLLLTLEEHIAHFLGTGGAATTMGNSCICRDDSGTDDSVDTQQQQAENSAVPTADTRSQPRDPVRPPRRGRGPHEPRRKKQNVDGLVLDTLAVIRTLVDNDQEPPYSMITLHEMAETDEGWLDVVQSLIRVIPLEDPLGPAVITLLLDECPLPTKDALQKLTEILNLNGEVACQDSSHPAKHRNTSAVLGCLAEKLAGPASIGLLSPGILEYLLQCLKLQSHPTVMLFALIALEKFAQTSENKLTISESSISDRLVTLESWANDPDYLKRQVGFCAQWSLDNLFLKEGRQLTYEKVNLSSIRAMLNSNDVSEYLKISPHGLEARCDASSFESVRCTFCVDAGVWYYEVTVVTSGVMQIGWATRDSKFLNHEGYGIGDDEYSCAYDGCRQLIWYNARSKPHIHPCWKEGDTVGFLLDLNEKQMIFFLNGNQLPPEKQVFSSTVSGFFAAASFMSYQQCEFNFGAKPFKYPPSMKFSTFNDYAFLTAEEKIILPRHRRLALLKQVSIRENCCSLCCDEVADTQLKPCGHSDLCMDCALQLETCPLCRKEIVSRIRQISHIS
B11: RFPL3: human RING type E3 ligase expressed from lentiviral vector (protein, UniProt O75679 1-317, looked up)
Ret finger protein-like 3: MKRLSLVTTNRLSPQGNFLPLCTFPLAVDMAALFQEASSCPVCSDYLEKPMSLECGCTVCLKCINSLQKEPHGEDLLCCCCSMVSQRNKIRPNRQLERLVSHIKELEPKLKKILQMNPRMRKFQVDMTLDADTANNFLLISDDLRSVRSGLITQNRQDLAERFDVSVCILGSPRFTCGRHYWEVDVGTSTEWDLGVCRESVHCKGKIQLTTELGFWTVSLRDGSRLSASTVPLTFLLVDRKLQRVGIFLDMGMQNVSFFDAESGSHVYTFRSVSAEEPLRPFLAPSIPPNGDQGVLSICPLMNSGTTDAPVRPGEAK
modifications: lentiviral expression
notes: as for B4
B12: MARCH3: human RING type E3 ligase expressed from lentiviral vector (protein, UniProt Q86UD3 1-253, looked up)
E3 ubiquitin-protein ligase …: MTTSRCSHLPEVLPDCTSSAAPVVKTVEDCGSLVNGQPQYVMQVSAKDGQLLSTVVRTLATQSPFNDRPMCRICHEGSSQEDLLSPCECTGTLGTIHRSCLEHWLSSSNTSYCELCHFRFAVERKPRPLVEWLRNPGPQHEKRTLFGDMVCFLFITPLATISGWLCLRGAVDHLHFSSRLEAVGLIALTVALFTIYLFWTLVSFRYHCRLYNEWRRTNQRVILLIPKSVNVPSNQPSLLGLHSVKRNSKETVV
modifications: lentiviral expression
notes: as for B4

Test system: coxsackievirus B3 (CVB3-GFP)
Assay type: cell-based
Conditions: HeLa cells, replicate R1; for Percent Infected R1: GFP-positive cells within RFP-positive gate

Molecule | Percent Infected R1 | Z score R1
B1 | 86.5% | −0.03
B2 | 87.4% | −0.02
B3 | 90.7% | 0.03
B4 | 88% | −0.01
B5 | 82.3% | −0.08
B6 | 94.9% | 0.08
B7 | 88.9% | 0
B8 | 88.2% | −0.01
B9 | 97.9% | 0.12
B10 | 91.4% | 0.04
B11 | 78.3% | −0.13
B12 | 91.4% | 0.04
